The source of these data is patent publication US20220411533A1 (Boehringer Ingelheim, published 2022).

B1: Trop2#7 (antibody, V domains shown)
VH: EVQLQQSGPELVKPGASVKMSCRASGYTFTSYAMHWVKQKPGQGLEWIGYINPYNGGTKYNEKFKGRATLTSDKSSSTAYMELSSLTSEDSAVYYCAREGIYYGAWFAYWGQGTLVTVSA
VL: DIQMTQSSSSFSVSLGDRVTITCKASEDIYNRLAWFQQKPGNAPRLLISGATSLETGVPSRFRGSRSGKDYTLSITSLQTEDVATYYCQQYWSTWTFGGGTKLEIK
B2: Trop2#1 (antibody, V domains shown)
VH: EVQLQQSGPELLKPGASVKISCKASGYTFTDYTMHWVKQSHGKSLEWIGGIYPNYGDTNYNEKFKDKATLTVDESSSTAYMELRSLTSEDSAVYYCSRKTVLLRLRYFDVWGTGTTVTVSS
VL: DIQMTQSPASLSASVGETVTITCRASGNIHNYLAWYQQKQGKSPQLLVYNAITLADGVPSRFSGSGSGTQYSLKINSLQPEDFGSYYCQHFWSTPFTFGSGTKLEIK
B3: Trop2#5 (antibody, V domains shown)
VH: EVQLQQSGPDLVKPGASVKMSCKASGFIFTDYYMNWVKQSHGKSLEWIGYIYPNNGATAYNQKFKGKATLTVDKSSSTAYMELRSLTSEDSAVYYCARESDFYAMDYWGQGTSVTVSS
VL: DVVMTQTPLSLPVSLGDQASISCRSSQSLVHSHGNIYLHWYLQKPGLSPKLLIFKVSNRFSGVPDRFSGSGSGTDFTLKISRVEAEDLGVYFCSQSTHVWTFGGGTKLEIK

The experiment concerns the target T1, human Trop2 recombinantly expressed on HEK293 cells (full-length, C-terminal Myc-DDK-tag) (human, UniProt P09758 27-323).
T1 construct: UniProt P09758 is printed for human TROP2; also called trophoblast cell-surface antigen 2; not shown: C-terminal Myc-DDK-tag of the Origene construct #RC202519
T1 sequence: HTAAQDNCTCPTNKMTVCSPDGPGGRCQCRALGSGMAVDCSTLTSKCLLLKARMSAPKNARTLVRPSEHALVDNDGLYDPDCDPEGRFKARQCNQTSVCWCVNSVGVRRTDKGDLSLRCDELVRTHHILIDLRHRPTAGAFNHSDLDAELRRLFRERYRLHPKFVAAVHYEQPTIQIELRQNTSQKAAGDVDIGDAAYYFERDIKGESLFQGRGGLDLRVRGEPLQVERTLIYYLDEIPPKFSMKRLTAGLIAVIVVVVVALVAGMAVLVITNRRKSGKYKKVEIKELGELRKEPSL
The experiment is described as follows: flow cytometry based Scatchard method on HEK293 cells expressing Trop2. For orientation: A flow cytometer gives signals particle by particle.
With B1, the Kd (as a rule, the constant that tells how readily two partners part at equilibrium) was 400 pM. For the molecule B2, the Kd was determined as 2200 pM. Regarding B3, the Kd came to 600 pM.
